Results as given in patent US20190248903A1 (Genentech, published 2019).

Legend:
[1] = molecular target: T1, cynomolgus CLL-1 on cells (HEK293AD cells stably expressing recombinant cynoCLL-1) (cynomolgus monkey); assay: Scatchard analysis on 293AD/cynoCLL1 cells; 293AD/cynoCLL1 cells
T1 construct: also called 293AD/cynoCLL-1; 293AD/cynoCLL1
T1 chain: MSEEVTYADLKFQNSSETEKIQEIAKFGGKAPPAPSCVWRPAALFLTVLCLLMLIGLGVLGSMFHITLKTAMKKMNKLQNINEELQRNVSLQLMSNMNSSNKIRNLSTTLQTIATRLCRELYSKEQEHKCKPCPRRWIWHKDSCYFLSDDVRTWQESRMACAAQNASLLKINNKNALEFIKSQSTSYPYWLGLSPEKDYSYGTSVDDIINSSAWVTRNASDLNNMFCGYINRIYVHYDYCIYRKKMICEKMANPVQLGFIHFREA

[2] = molecular target: T1, cynomolgus CLL-1 on cells (HEK293AD …); assay: Scatchard analysis on 293AD/cynoCLL1 cells
Experimental: Competition assay mixtures of 50 μL volume containing a fixed concentration of [I¹²⁵] labeled antibody and decreasing concentrations of serially diluted, unlabeled antibody were placed into 96-well plates. HEK293AD cells stably expressing recombinant hu or cynoCLL-1 or HL-60 tumor cells expressing endogenous CLL-1 were cultured in growth media at 37° C. in 5% CO₂. Cells were detached from the flask using Sigma Cell Dissociation Solution and were washed with binding buffer, which consisted of Dulbecco's Modified Eagle Medium (DMEM) with 1% bovine serum albumin (BSA), […] and 0.1% sodium azide. The washed cells were added to the 96 well plates at a density of 100,000 cells in 0.2 mL of binding buffer. […] The final concentration of the unlabeled antibody in the competition assay ranged from 1000 nM through ten 2-fold dilution steps to a 0 nM buffer-only assay. Competition assays were carried out in triplicate. Competition assays were incubated for 2 hours at room temperature. […] The filters were counted on a Wallac Wizard 1470 gamma counter (PerkinElmer Life and Analytical Sciences Inc.; Wellesley, Mass.). The binding data was evaluated using NewLigand software (Genentech), which uses the fitting algorithm of Munson and Robard to determine the binding affinity of the antibody (Munson and Robard 1980).

B1: humanized 6E7.L4H1e (antibody, V domains shown)
VH: EVQLVQSGAEVKKPGASVKVSCKASGYSFTDYYMHWVRQAPGQGLEWIGRINPYNGAAFYSQNFKDRVTLTVDTSTSTAYLELSSLRSEDTAVYYCAIERGADLEGYAMDYWGQGTLVTVSS
VL: DIQMTQSPSSLSASVGDRVTITCRASQSVSTSSYNYMHWYQQKPGKPPKLLIKYASNLESGVPSRFSGSGSGTDFTLTISSLQPEDFATYYCQHSWEIPLTFGQGTKVEIK
notes: also called h6E7.L4H1e; 6E7.L4H1eN54
Kd [1]: 670 pM
Kd [2]: 220 pM
